The text below walks through data of article PMC11213948 (2024).

The chains are these.
B1: Xpress-His G5_(1–1287) [not stated] / G5_(1–1508)-FLAG [not stated] (parent complex)
chain 1: MGQEPRTLPPSPNWYCARCSDAVPGGLFGFAARTSVFLVRVGPGAGESPGTPPFRVIGELVGHTERVSGFTFSHHPGQYNLCATSSDDGTVKIWDVETKTVVTEHALHQHTISTLHWSPRVKDLIVSGDEKGVVFCYWFNRNDSQHLFIEPRTIFCLTCSPHHEDLVAIGYKDGIVVIIDISKKGEVIHRLRGHDDEIHSIAWCPLPGEDCLSINQEETSEEAEITNGNAVAQAPVTKGCYLATGSKDQTIRIWSCSRGRGVMILKLPFLKRRGGGIDPTVKERLWLTLHWPSNQPTQLVSSCFGGELLQWDLTQSWRRKYTLFSASSEGQNHSRIVFNLCPLQTEDDKQLLLSTSMDRDVKCWDIATLECSWTLPSLGGFAYSLAFSSVDIGSLAIGVGDGMIRVWNTLSIKNNYDVKNFWQGVKSKVTALCWHPTKEGCLAFGTDDGKVGLYDTYSNKPPQISSTYHKKTVYTLAWGPPVPPMSLGGEGDRPSLALYSCGGEGIVLQHNPWKLSGEAFDINKLIRDTNSIKYKLPVHTEISWKADGKIMALGNEDGSIEIFQIPNLKLICTIQQHHKLVNTISWHHEHGSQPELSYLMASGSNNAVIYVHNLKTVIESSPESPVTITEPYRTLSGHTAKITSVAWSPHHDGRLVSASYDGTAQVWDALREEPLCNFRGHRGRLLCVAWSPLDPDCIYSGADDFCVHKWLTSMQDHSRPPQGKKSIELEKKRLSQPKAKPKKKKKPTLRTPVKLESIDGNEEESMKENSGPVENGVSDQEGEEQAREPELPCGLAPAVSREPVICTPVSSGFEKSKVTINNKVILLKKEPPKEKPETLIKKRKARSLLPLSTSLDHRSKEELHQDCLVLATAKHSRELNEDVSADVEERFHLGLFTDRATLYRMIDIEGKGHLENGHPELFHQLMLWKGDLKGVLQTAAERGELTDNLVAMAPAAGYHVWLWAVEAFAKQLCFQDQYVKAASHLLSIHKVYEAVELLKSNHFYREAIAIAKARLRPEDPVLKDLYLSWGTVLERDGHYAVAAKCYLGATCAYDAAKVLAKKGDAASLRTAAELAAIVGEDELSASLALRCAQELLLANNWVGAQEALQLHESLQGQRLVFCLLELLSRHLEEKQLSEGKSSSSYHTWNTGTEGPFVERVTAVWKSIFSLDTPEQYQEAFQKLQNIKYPSATNNTPAKQLLLHICHDLTLAVLSQQMASWDEAVQALLRAVVRSYDSGSFTIMQEVYSAFLPDGCDHLRDKLGDHQSPATPAFKSLEAFFLYGRLYE
chain 2: MGQEPRTLPPSPNWYCARCSDAVPGGLFGFAARTSVFLVRVGPGAGESPGTPPFRVIGELVGHTERVSGFTFSHHPGQYNLCATSSDDGTVKIWDVETKTVVTEHALHQHTISTLHWSPRVKDLIVSGDEKGVVFCYWFNRNDSQHLFIEPRTIFCLTCSPHHEDLVAIGYKDGIVVIIDISKKGEVIHRLRGHDDEIHSIAWCPLPGEDCLSINQEETSEEAEITNGNAVAQAPVTKGCYLATGSKDQTIRIWSCSRGRGVMILKLPFLKRRGGGIDPTVKERLWLTLHWPSNQPTQLVSSCFGGELLQWDLTQSWRRKYTLFSASSEGQNHSRIVFNLCPLQTEDDKQLLLSTSMDRDVKCWDIATLECSWTLPSLGGFAYSLAFSSVDIGSLAIGVGDGMIRVWNTLSIKNNYDVKNFWQGVKSKVTALCWHPTKEGCLAFGTDDGKVGLYDTYSNKPPQISSTYHKKTVYTLAWGPPVPPMSLGGEGDRPSLALYSCGGEGIVLQHNPWKLSGEAFDINKLIRDTNSIKYKLPVHTEISWKADGKIMALGNEDGSIEIFQIPNLKLICTIQQHHKLVNTISWHHEHGSQPELSYLMASGSNNAVIYVHNLKTVIESSPESPVTITEPYRTLSGHTAKITSVAWSPHHDGRLVSASYDGTAQVWDALREEPLCNFRGHRGRLLCVAWSPLDPDCIYSGADDFCVHKWLTSMQDHSRPPQGKKSIELEKKRLSQPKAKPKKKKKPTLRTPVKLESIDGNEEESMKENSGPVENGVSDQEGEEQAREPELPCGLAPAVSREPVICTPVSSGFEKSKVTINNKVILLKKEPPKEKPETLIKKRKARSLLPLSTSLDHRSKEELHQDCLVLATAKHSRELNEDVSADVEERFHLGLFTDRATLYRMIDIEGKGHLENGHPELFHQLMLWKGDLKGVLQTAAERGELTDNLVAMAPAAGYHVWLWAVEAFAKQLCFQDQYVKAASHLLSIHKVYEAVELLKSNHFYREAIAIAKARLRPEDPVLKDLYLSWGTVLERDGHYAVAAKCYLGATCAYDAAKVLAKKGDAASLRTAAELAAIVGEDELSASLALRCAQELLLANNWVGAQEALQLHESLQGQRLVFCLLELLSRHLEEKQLSEGKSSSSYHTWNTGTEGPFVERVTAVWKSIFSLDTPEQYQEAFQKLQNIKYPSATNNTPAKQLLLHICHDLTLAVLSQQMASWDEAVQALLRAVVRSYDSGSFTIMQEVYSAFLPDGCDHLRDKLGDHQSPATPAFKSLEAFFLYGRLYEFWWSLSRPCPNSSVWVRAGHRTLSVEPSQQLDTASTEETDPETSQPEPNRPSELDLRLTEEGERMLSTFKELFSEKHASLQNSQRTVAEVQETLAEMIRQHQKSQLCKSTANGPDKNEPEVEAEQPLCSSQSQCKEEKNEPLSLPELTKRLTEANQRMAKFPESIKAWPFPDVLECCLVLLLIRSHFPGCLAQEMQQQAQELLQKYGNTKTYRRHCQTFCM
B2: Xpress-His G5_(845–1287) [not stated] / G5_(1–1508)-FLAG [not stated] (parent complex)
chain 1: ARSLLPLSTSLDHRSKEELHQDCLVLATAKHSRELNEDVSADVEERFHLGLFTDRATLYRMIDIEGKGHLENGHPELFHQLMLWKGDLKGVLQTAAERGELTDNLVAMAPAAGYHVWLWAVEAFAKQLCFQDQYVKAASHLLSIHKVYEAVELLKSNHFYREAIAIAKARLRPEDPVLKDLYLSWGTVLERDGHYAVAAKCYLGATCAYDAAKVLAKKGDAASLRTAAELAAIVGEDELSASLALRCAQELLLANNWVGAQEALQLHESLQGQRLVFCLLELLSRHLEEKQLSEGKSSSSYHTWNTGTEGPFVERVTAVWKSIFSLDTPEQYQEAFQKLQNIKYPSATNNTPAKQLLLHICHDLTLAVLSQQMASWDEAVQALLRAVVRSYDSGSFTIMQEVYSAFLPDGCDHLRDKLGDHQSPATPAFKSLEAFFLYGRLYE
chain 2: B1 chain 2
B3: Xpress-His G5_(845–1508) [not stated] / G5_(1–1508)-FLAG [not stated] (parent complex)
chain 1: ARSLLPLSTSLDHRSKEELHQDCLVLATAKHSRELNEDVSADVEERFHLGLFTDRATLYRMIDIEGKGHLENGHPELFHQLMLWKGDLKGVLQTAAERGELTDNLVAMAPAAGYHVWLWAVEAFAKQLCFQDQYVKAASHLLSIHKVYEAVELLKSNHFYREAIAIAKARLRPEDPVLKDLYLSWGTVLERDGHYAVAAKCYLGATCAYDAAKVLAKKGDAASLRTAAELAAIVGEDELSASLALRCAQELLLANNWVGAQEALQLHESLQGQRLVFCLLELLSRHLEEKQLSEGKSSSSYHTWNTGTEGPFVERVTAVWKSIFSLDTPEQYQEAFQKLQNIKYPSATNNTPAKQLLLHICHDLTLAVLSQQMASWDEAVQALLRAVVRSYDSGSFTIMQEVYSAFLPDGCDHLRDKLGDHQSPATPAFKSLEAFFLYGRLYEFWWSLSRPCPNSSVWVRAGHRTLSVEPSQQLDTASTEETDPETSQPEPNRPSELDLRLTEEGERMLSTFKELFSEKHASLQNSQRTVAEVQETLAEMIRQHQKSQLCKSTANGPDKNEPEVEAEQPLCSSQSQCKEEKNEPLSLPELTKRLTEANQRMAKFPESIKAWPFPDVLECCLVLLLIRSHFPGCLAQEMQQQAQELLQKYGNTKTYRRHCQTFCM
chain 2: B1 chain 2

The variants in one assay derive from B1. As to the kind of experiment: pull-down; HEK293 cell lysates; western blot with anti-FLAG and anti-Xpress; n = 5; read off a plot.
On to chain 1 A951E, for which the response is ~0.29 relative intensity (PD/In).

A further assay covers variants of B2. Put plainly: pull-down; HEK293 cell lysates; western blot with anti-FLAG and anti-Xpress; read off a plot.
Consider chain 1 ARSLLPLSTSLDHRSKEELHQDCLVLATAKHSRELNEDVSADVEERFHLGLFTDRATLYRMIDIEGKGHLENGHPELFHQLMLWKGDLKGVLQTAAERGELTDNLVEMAPAAGYHVWLWAVEAFAKQLCFQDQYVKAASHLLSIHKVYEAVELLKSNHFYREAIAIAKARLRPEDPVLKDLYLSWGTVLERDGHYAVAAKCYLGATCAYDAAKVLAKKGDAASLRTAAELAAIVGEDELSASLALRCAQELLLANNWVGAQEALQLHESLQGQRLVFCLLELLSRHLEEKQLSEGKSSSSYHTWNTGTEGPFVERVTAVWKSIFSLDTPEQYQEAFQKLQNIKYPSATNNTPAKQLLLHICHDLTLAVLSQQMASWDEAVQALLRAVVRSYDSGSFTIMQEVYSAFLPDGCDHLRDKLGDHQSPATPAFKSLEAFFLYGRLYE [chain 1 A107E], for which the response is ~0.33 relative intensity (PD/In).

In a further assay the parent is B3. As to the kind of experiment: pull-down; HEK293 cell lysates; western blot with anti-FLAG and anti-Xpress; n = 3; read off a plot.
On to chain 1 A107E, for which the response was ~0.38 relative intensity (PD/In).
